# How the values were obtained:
# [1] = ^203Pb-conjugate biodistribution study in tumor-free immunocompetent mice
# Protocol: After that, the mice were divided in 6 groups of 10, denoted as groups A, B, C, D, E and F respectively, each comprising 5 male and 5 female.
# The mice of group A were sacrificed at 5 min post-dose injection; the mice of group B were sacrificed at 30 min post-dose injection; the mice of group C were sacrificed at 1 hour post-dose injection; the mice of group D were sacrificed at 4 hours post-dose injection whereas the mice of group E were sacrificed at 24 hours post-dose injection.
# The mice of group F were placed in metabolic cages and their urinary and fecal excretions were collected at 4 hours, 24 hours and 48 hours post-dose injection; they were sacrificed at 48 hours post-dose injection. […]
# The tubes were counted for two min. A standard consisting of 5 μL of the solution injected to the mice was also counted for each group of mice. […]
# The excretions of the mice of group F were also counted.
# The percent injected dose per gram, noted as % ID/g, was calculated for each organ collected (mean±standard deviation) whilst the percent injected dose, noted as % ID, was calculated for the excretions of the mice of group F (mean±standard deviation).
# subcutaneous PC-3 tumors [2] = assay: Comparative biodistribution, change of chelator (DOTAM vs DOTA), xenograft-bearing mice; format: in vivo, athymic nude mice; details: over the first 24 hours
# Text: The instant study was aimed at comparing the biodistribution of the conjugate of the invention, labelled with ^212Pb, in athymic nude mice bearing a human prostate cancer cell tumor with that of a conjugate also labelled with ^212Pb and only differing from the conjugate of the invention in that the chelator corresponds to DOTA (1,4,7,10-tetraazacyclododecane-1,4,7,10-tetraacetic acid) and is of formula:
# 30 male athymic nude mice, 7-8 weeks old and weighting 27.90±1.9 g at study initiation, were injected subcutaneously, into the right flank, with 10^6 PC-3 human prostate cancer cells in 100 μL of RPMI-1640 medium/Matrigel™ (v/v: 1/1). The tumors were let grow until they reached 200-300 mm^3.
# Each mouse of groups A, B and C received intravenously one ^212Pb-DOTAM-conjugate dose whilst each mouse of groups […] received intravenously one ^212Pb-DOTA-conjugate dose.
# (§1) The tubes were counted for two min. Standards consisting of 5 μL of the solutions injected to the mice were also counted. The background was automatically subtracted from the counts. The standards were also used for decay correction.
# subcutaneous PC-3 tumors [3] = assay: ^212Pb-conjugate biodistribution study in xenograft-bearing mice (10 μCi per 14 ng); format: in vivo, athymic nude mice
# Protocol: 15 male athymic nude mice, 7-8 weeks old and weighting 27.74±1.87 g at study initiation, were injected subcutaneously, into the right flank, with 10^6 PC-3 human prostate cancer cells in 100 μL of RPMI-1640 medium/Matrigel™ (v/v: 1/1). […] Then each mouse received intravenously (into a tail vein) one ^212Pb-conjugate dose. […] The tubes were counted for two min. […] The background was automatically subtracted from the counts. The standard was also used for decay correction.
# [4] = Comparative biodistribution, ACMP linker, tumor-free immunocompetent mice; format: in vivo, immunocompetent CD1 female mice; details: 4 hours post-dose injection
# Protocol: The study was aimed at assessing the biodistribution […] conjugate of the invention in that it comprises a linker constituted by a 4-amino-(1-carboxymethyl)piperidinyl group, of formula: […]
# 5 immunocompetent CD1 female mice, 7-8 weeks old, were injected intravenously with one ^212Pb-ACMP-conjugate dose.
# The mice were sacrificed at 4 hour post-dose injection.
# as §1
compound,measurement,setting,value
"CC(C)C[C@H](NC(=O)C[C@H](O)[C@H](CC(C)C)NC(=O)[C@H](Cc1c[nH]cn1)NC(=O)CNC(=O)[C@@H](NC(=O)[C@H](C)NC(=O)[C@H](Cc1c[nH]c2ccccc12)NC(=O)[C@H](CCC(N)=O)NC(=O)[C@@H](Cc1ccccc1)NC(=O)CCNC(=O)CCNC(=O)CN1CCN(CC(N)=O)CCN(CC(N)=O)CCN(CC(N)=O)CC1)C(C)C)C(N)=O [^203Pb-conjugate, metal not drawn]","route of elimination (urinary, fecal excretion)","[1]; excretions collected at 4, 24 and 48 hours post-dose",mainly eliminated by renal excretion
same,biodistribution profile,"[1]; male and female mice, 5 min to 48 hours, 10 μCi per 28 ng",safe biodistribution profile
"CC(C)C[C@H](NC(=O)C[C@H](O)[C@H](CC(C)C)NC(=O)[C@H](Cc1c[nH]cn1)NC(=O)CNC(=O)[C@@H](NC(=O)[C@H](C)NC(=O)[C@H](Cc1c[nH]c2ccccc12)NC(=O)[C@H](CCC(N)=O)NC(=O)[C@@H](Cc1ccccc1)NC(=O)CCNC(=O)CCNC(=O)CN1CCN(CC(N)=O)CCN(CC(N)=O)CCN(CC(N)=O)CC1)C(C)C)C(N)=O [^212Pb-conjugate, metal not drawn]",tumor retention versus ^212Pb-DOTA-conjugate,subcutaneous PC-3 tumors [2],higher
same,tumor/blood ratio,"subcutaneous PC-3 tumors [3]; i.v., 10 μCi per 14 ng",high
same,clearance,"subcutaneous PC-3 tumors [3]; mouse, in vivo, iv",fast clearance
"CC(C)C[C@H](NC(=O)C[C@H](O)[C@H](CC(C)C)NC(=O)[C@H](Cc1c[nH]cn1)NC(=O)CNC(=O)[C@@H](NC(=O)[C@H](C)NC(=O)[C@H](Cc1c[nH]c2ccccc12)NC(=O)[C@H](CCC(N)=O)NC(=O)[C@@H](Cc1ccccc1)NC(=O)CN1CCC(NC(=O)CN2CCN(CC(N)=O)CCN(CC(N)=O)CCN(CC(N)=O)CC2)CC1)C(C)C)C(N)=O [^212Pb-ACMP-conjugate, metal not drawn]",safety profile relative to the -β-Ala-β-Ala- linker conjugate,[4],significantly lower safety profile
same,uptake in kidneys relative to the -β-Ala-β-Ala- linker conjugate,[4]; 10 μCi per 4.1 ng,5 times

# — patent US20230372552A1, “CONJUGATE OR ITS SALT COMPRISING A GASTRIN-RELEASING PEPTIDE RECEPTOR ANTAGONIST AND USES THEREOF” (ORANO MED, priority 2020, published 2023)
